To fix the notation:
B1: ZNF263 (parent)
chain: EKPYKCPECGEIFAHSSNLLRHQR
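Further: lentivirally expressed fusions sorted by FACS into six bins by GFP to DsRed ratio, PSI derived from sequencing read proportions per bin multiplied by bin number.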

In this data set the parent is B1. In words: protein stability index of a GFP-peptide fusion (GPS, HEK-293T) (PSI 1-6); higher = more stable. The following applies: c terminus: a fixed tail appended.
For EKPYKCPECGEIFAHSSNLNRHQR [L20N], the protein stability index was 1.59.
The value for EKPYKCPECGEIFAHSSNLGRHQR [L20G] was 2.29.
Under EKPYKCPECGEIFAHSSNLQRHQR [L20Q] stands 2.96; under EKPYKCPECGEIFAHSSNLVRHQR [L20V], 1.87; under EKPYKCPECGEIFAHSSNLKRHQR [L20K], 2.62.
The value for EKPYKCPECGEIFAHSSNLIRHQR [L20I] was 2.04; that for EKPYKCPECGEIFAHSSNLARHQR [L20A] was 1.79.
For the variant EKPYKCPECGEIFAHSSNLYRHQR [L20Y], the protein stability index stood at 2.44.
The value for EKPYKCPECGEIFAHSSNLMRHQR [L20M] was 2.6; that for EKPYKCPECGEIFAHSSNLHRHQR [L20H] was 3.79.
The value for EKPYKCPECGEIFAHSSNLTRHQR [L20T] was 2.66.
The value for EKPYKCPECGEIFAHSSNLLRGQR [H22G] was 1.25; that for EKPYKCPECGEIFAHSSNLLRIQR [H22I] was 1.34.
Regarding EKPYKCPECGEIFAHSSNLLRPQR [H22P], the protein stability index was 1.35.
The value for EKPYKCPECGEIFAHSSNLLRRQR [H22R] was 3.03.
The value for EKPYKCPECGEIFAHSSNLLRSQR [H22S] was 1.89; that for EKPYKCPECGEIFAHSSNLLRLQR [H22L] was 1.91.
On to EKPYKCPECGEIFAHSSNLLRCQR [H22C], for which the protein stability index came to 2.43.
The value for EKPYKCPECGEIFAHSSNLLRFQR [H22F] was 1.66; that for EKPYKCPECGEIFAHSSNLLRWQR [H22W] was 1.23.
For EKPYKCPECGEIFAHSSNLLRDQR [H22D], the protein stability index came out at 3.17.
Under EKPYKCPECGEIFAHSSNLLRAQR [H22A] stands 2.88; under EKPYKCPECGEIFAHSSNLLRQQR [H22Q], 1.54; under EKPYKCPECGEIFAHSSNLLRTQR [H22T], 1.43.
Take EKPYKCPECGEIFAHSSNLLRNQR [H22N]: the protein stability index was determined as 2.35.
Under EKPYKCPECGEIFAHSSNLLRKQR [H22K] stands 2.16; under EKPYKCPECGEIFAHSSNLLRMQR [H22M], 2.64.
Under EKPYKCPECGEIFAHSSNLLREQR [H22E] stands 2.55; under EKPYKCPECGEIFAHSSNLLRHQA [R24A], 4.17.
Regarding EKPYKCPECGEIFAHSSNLLRHQP [R24P], the protein stability index worked out at 3.44.
The value for EKPYKCPECGEIFAHSSNLLRHQK [R24K] was 3.25; that for EKPYKCPECGEIFAHSSNLLRHQT [R24T] was 3.24; that for EKPYKCPECGEIFAHSSNLLRHQV [R24V] was 3.54.
The value for EKPYKCPECGEIFAHSSNLLRHQC [R24C] was 5.28; that for EKPYKCPECGEIFAHSSNLLRHQN [R24N] was 3.92; that for EKPYKCPECGEIFAHSSNLLRHQH [R24H] was 4.43.
Consider EKPYKCPECGEIFAHSSNLLRHQL [R24L], for which the protein stability index was found to be 4.29.
The value for EKPYKCPECGEIFAHSSNLLRHQG [R24G] was 3.7.
Consider EKPYKCPECGEIFAHSSNLLRHQS [R24S], for which the protein stability index was found to be 4.47.
Under EKPYKCPECGEIFAHSSNLLRHQQ [R24Q] stands 3.74; under EKPYKCPECGEIFAHSSNLLRHQY [R24Y], 2.68; under EKPYKCPECGEIFAHSSNLLRHQD [R24D], 3.96.
The value for EKPYKCPECGEIFAHSSNLLRHQE [R24E] was 4.38; that for EKPYKCPECGEIFAHSSNLLRHQM [R24M] was 3.6; that for EKPYKCPECGEIFAHSSNLLRHQF [R24F] was 3.32.
Under EKPYKCPECGEIFAHSSNLLRHQI [R24I] stands 3.25; under EKPYKCPECGEIFAHSSNLLRHQW [R24W], 2.74.
On to EKPYKCPECGEIFAHSSNHLRHQR [L19H], for which the protein stability index was determined as 3.63.
Under EKPYKCPECGEIFAHSSNILRHQR [L19I] stands 1.8.
Under EKPYKCPECGEIFAHSSNNLRHQR [L19N] stands 1.64; under EKPYKCPECGEIFAHSSNPLRHQR [L19P], 2.18.
Under EKPYKCPECGEIFAHSSNMLRHQR [L19M] stands 2.38.
EKPYKCPECGEIFAHSSNFLRHQR [L19F]: the protein stability index was determined as 2.68.
Under EKPYKCPECGEIFAHSSNTLRHQR [L19T] stands 2.16; under EKPYKCPECGEIFAHSSNYLRHQR [L19Y], 2.54.
Under EKPYKCPECGEIFAHSSNSLRHQR [L19S] stands 2.61; under EKPYKCPECGEIFAHSSNQLRHQR [L19Q], 1.78; under EKPYKCPECGEIFAHSSNVLRHQR [L19V], 2.92.
Consider EKPYKCPECGEIFAHSSNKLRHQR [L19K], for which the protein stability index came to 2.73.
Under EKPYKCPECGEIFAHSSNLLRHFR [Q23F] stands 2.35; under EKPYKCPECGEIFAHSSNLLRHVR [Q23V], 1.82.
Consider EKPYKCPECGEIFAHSSNLLRHGR [Q23G], for which the protein stability index stood at 1.82.
The value for EKPYKCPECGEIFAHSSNLLRHLR [Q23L] was 2.86; that for EKPYKCPECGEIFAHSSNLLRHDR [Q23D] was 1.82.
For the variant EKPYKCPECGEIFAHSSNLLRHWR [Q23W], the protein stability index turned out to be 2.42.
The value for EKPYKCPECGEIFAHSSNLLRHCR [Q23C] was 2.41.
Under EKPYKCPECGEIFAHSSNLLRHIR [Q23I] stands 3.16; under EKPYKCPECGEIFAHSSNLLRHTR [Q23T], 2.25.
The value for EKPYKCPECGEIFAHSSNLLRHMR [Q23M] was 3.02; that for EKPYKCPECGEIFAHSSNLLRHAR [Q23A] was 2.21; that for EKPYKCPECGEIFAHSSNLLRHNR [Q23N] was 2.88.
As for EKPYKCPECGEIFAHSSNLLRHKR [Q23K], the protein stability index came out at 2.9.
EKPYKCPECGEIFAHSSNLLRHHR [Q23H]: the protein stability index turned out to be 2.34.
In the case of EKPYKCPECGEIFAHSSNLLRHER [Q23E], the protein stability index came to 2.48.
With EKPYKCPECGEIFAHSSNLLRHPR [Q23P], the protein stability index came out at 2.11.
For the variant EKPYKCPECGEIFAHSSNLLRHYR [Q23Y], the protein stability index worked out at 2.07.
Under EKPYKCPECGEIFAHSSNLLGHQR [R21G] stands 2.01; under EKPYKCPECGEIFAHSSNLLMHQR [R21M], 3.58.
The value for EKPYKCPECGEIFAHSSNLLKHQR [R21K] was 3.51.
Under EKPYKCPECGEIFAHSSNLLPHQR [R21P] stands 3.43.
For EKPYKCPECGEIFAHSSNLLHHQR [R21H], the protein stability index stood at 3.35.
The value for EKPYKCPECGEIFAHSSNLLIHQR [R21I] was 3.75.
On to EKPYKCPECGEIFAHSSNLLVHQR [R21V], for which the protein stability index is 2.85.
Under EKPYKCPECGEIFAHSSNLLYHQR [R21Y] stands 3.36.
The value for EKPYKCPECGEIFAHSSNLLSHQR [R21S] was 2.89; that for EKPYKCPECGEIFAHSSNLLCHQR [R21C] was 3.98; that for EKPYKCPECGEIFAHSSNLLAHQR [R21A] was 3.84.
Under EKPYKCPECGEIFAHSSNLLFHQR [R21F] stands 3.04.
Turning to EKPYKCPECGEIFAHSSNLLTHQR [R21T], the protein stability index was 4.27.
Under EKPYKCPECGEIFAHSSNLLLHQR [R21L] stands 2.82; under EKPYKCPECGEIFAHSSNLLDHQR [R21D], 4.24; under EKPYKCPECGEIFAHSSNLLEHQR [R21E], 4.38.
As for EKPYKCPECGEIFAHSSNLLNHQR [R21N], the protein stability index was 3.29.
Under EKPYKCPECGEIFAHSSNLLWHQR [R21W] stands 3.43.
